# Data: article PMC4644993, “The second virial coefficient as a predictor of protein aggregation propensity: A self-interaction chromatography study” (European Journal of Pharmaceutics and Biopharmaceutics, 2015)
# B1: catalase from bovine liver (enzyme, UniProt P00432 1-527, looked up)
# chain: MADNRDPASDQMKHWKEQRAAQKPDVLTTGGGNPVGDKLNSLTVGPRGPLLVQDVVFTDEMAHFDRERIPERVVHAKGAGAFGYFEVTHDITRYSKAKVFEHIGKRTPIAVRFSTVAGESGSADTVRDPRGFAVKFYTEDGNWDLVGNNTPIFFIRDALLFPSFIHSQKRNPQTHLKDPDMVWDFWSLRPESLHQVSFLFSDRGIPDGHRHMNGYGSHTFKLVNANGEAVYCKFHYKTDQGIKNLSVEDAARLAHEDPDYGLRDLFNAIATGNYPSWTLYIQVMTFSEAEIFPFNPFDLTKVWPHGDYPLIPVGKLVLNRNPVNYFAEVEQLAFDPSNMPPGIEPSPDKMLQGRLFAYPDTHRHRLGPNYLQIPVNCPYRARVANYQRDGPMCMMDNQGGAPNYYPNSFSAPEHQPSALEHRTHFSGDVQRFNSANDDNVTQVRTFYLKVLNEEQRKRLCENIAGHLKDAQLFIQKKAVKNFSDVHPEYGSRIQALLDKYNEEKPKNAVHTYVQHGSHLSAREKANL
# notes: catalase from bovine liver, MW 250 kD, pI 5.4; Immobilised copy is coupled to Toyopearl AF-Amino-650M particles with EDC and NHS; source: bought: Sigma Aldrich (C9322)
# Molecular target: the molecule itself
# Experiment: self-interaction chromatography; the same protein immobilised on Toyopearl particles (surface coverage ~30-40%) and injected (5-15 mg/mL, 10 uL, 0.5 mL/min); b2 from first-moment retention; increasing ionic strength of different sodium salts; 20 mM sodium phosphate pH 7.0 for lactoferrin, catalase and con A, 50 mM sodium acetate pH 4.5 for lysozyme
protein,measurement,value
B1,binding result,binds
